Assay results reported in the nanobody polyreactivity screen of Harvey et al. (2022).

Test: yeast display, Sf9 membrane polyspecificity reagent, FACS + sequencing; frameworks hold sequencing errors
How it was run: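 In a synthetic yeast display library (Saccharomyces cerevisiae BJ5465), nanobody expression was induced with galactose for 36–48 hours. FACS gates were set low and high (top ~1%) using anti-HA fluorescence for expression and streptavidin fluorescence for binding of the Sf9 membrane reagent. Each polyreactivity label is drawn from the gate of origin.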

| Sequence | polyreactivity (PSR sort gate) |
| --- | --- |
| QVQLVESGGGLVQAGGSLRLSCAASGRIFRGNAMGWYRQAPGKERELVAAINYSGGSTYYADSVKGRFTISRDNAKNTVYLQMNSLKPEDTAVYYCAAEPGQYGWYYGYGYWGQGTQVTVSS | high polyreactivity |
| QVQLVESGGGLVQAGGSLRLSCAASGSIFSSYAMGWYRQAPGKERELVAAISQSGGDTYYADSVKGRFTISRDNAKNTVYLQMNSLKPEDTAVYYCAASVWYYPMDYWGKGTQVTVSS | low polyreactivity |
| QVQLVESGGGLVQAGGSLRLSCAASGFNFVHYAMGWYRPAPGKDRELVAAISKRGGTTYYADSVKGRFTISRDNAKNTVYLQMNSLKPEDSAVYYCNADVTNWEDDYYYWGQGTQVNVSS | high polyreactivity |
| QVQLVESGGGLVQAGGSLRLSCAASGSIFAYYAMGWYRQAPGKERELVAAISRRAGTTYYADSVKGRFTISRDNAKNTVYLQMNSLKPEDTAVYYCAKVSSVWYPRVDYWGQGTQVTVSS | low polyreactivity |
| QVQLVESGGGLVQAGGSLRLSCAASGLILSDYVMGWYRQAPGKEREFVAAITSTGGSTYYADSVKGRFTISRDNAKNTVYLQMNSLKPEDTAVYYCAVRIHFPFPRRYYYWGQGTQVTVSS | high polyreactivity |
| QVQLVESAAGLVQAGGSLRLSCAASGFIFQYYAMGWYRQAPGKERELVAAINRGGGTHYADSVKGRFTISRDNAKNTVYLQMNSLKREDTAVYYCNKVYYWPGSRPSRYEYWGQGTQVTVSS | low polyreactivity |
| QVQLVESGGGLVQAGGSLRLSCAASGRTFLHNAMGWYRQAPGKERELVAAITWSGGSTYYADSVKGRFTISRDNAKNTVYLQMNSLKPEDTAVYYCNARHRYYRYGYWGQGTQVTVSS | high polyreactivity |
| QVQLVESGGGLVQAGGSLRLSCAASRSTFGFYAMGWYRQAPGTERELVAAISRRGGTTYYADSVKGRFTISRDIAKNTFYLQMNSLKPEDTAVYYCAARIHYYAGYDYWGQGTQVTVSS | high polyreactivity |
| QVQLVESGGGLVQAGGSLRISCAASGRIFLGNAMGWYRQAPGKERELVAAITNGGGSTYYADSVKGRFTISRDNAKNTVYLQMNSLKPEDTAVYYCARGYKKSVQRFEYWGQGTQVTVSS | high polyreactivity |
| QVQLVDSGGGLVQAGGSLRLSCAASGFNFDRNTMGWYRKAPGKERELVATISSTGTTNYADSVKGRFTISRDNAKNTVYLQMNSLKPEDTAVYYCNAYPRWRYVSYYRSYRYDYWGQGTQVTVSS | high polyreactivity |
| QVQLVESGGGLVQAGGSLRLSCAASGITFDHYAMGWYRPAPGKERELVATIRGSGTSTYYADSVKGRFTISRDNAKNTVYLQMHSLKPEDTAVYYCAARGRYRQFNYWGQGTQVTVSS | high polyreactivity |
| QVQLVESGGGLVQAGVSLRLSCAASGRIFHFYAMGCYRQAPGKERELVASITWRGGRTYYADSVKARFTISRDNAKNTVFLQMNSLKPEDTAVYYCAADFRSGFSSSTTPVQSDWGQGTQVTVSS | low polyreactivity |
| QVQLVESGGGLVQAGGSLRLSCAASGSIFSYYAMGWYRQAPGKERELVATITSSGSTYADSVKGRFTISRDNAKNTVYLQMNSLKPEDTAVYYCNADSGYSEYWGVDVAYDYWGQGTQVTVSS | low polyreactivity |
| QVQLVESGGGLVQAGGSLRLSCAASGDTFPKYAMGWYRQAPGKERELVAAITKRGGRTYYADSVKGRFTISRDNAKNTVYLQMNRVKPEDTAVYYCAVDLDGPEYSQVHYDYWGQGTQVTVSS | high polyreactivity |
| QVQLVESGGGLVQAGGSLRLSCAASGFTFANYAMGWYRQAPGKERELVASITRSGGSTYYADSVKGRFTISRDNAKNTVYLQMNSLKPEDTAVYYCAKDRRRWYYTRDYWGQGTQVTVSS | low polyreactivity |
| QVQLVESGGGLVQAGGSLRLSCAASGTFGYYTMGWYRQAPGKERELVAAITRSGGSTYYADSVKGRFTISRDNAKNTVYLQMNSLKPEDTAVYYFATELHAWSSWNRYRAYYYWGQGTQVTVSS | high polyreactivity |
| QVQLVDSGGGLVQAGGSLRLSSPASGIIFTRYTMGCYSQEPGKERELVAAITTSGGRTYYADSVKGRFTISRDNAKNTVYLPMNSLKPEDTAVYYCDVSGHARYDYWGQGTQVTVSS | high polyreactivity |
| QVQLVESGGGLVQAGGSLRLSCAASGFIIPGYAMGWYRQAPGKERELVAAISRSGTSTYYADSVKGRFTISRDNAKNTVYLQMNSLKPEDTAVYYCAAKPASLSVRGYDYWGQGTQVTVSS | high polyreactivity |
| QVQLVESGGGLVQAGGSLSLSCAASGLTFVDNAMGWYRQAPWKERELVAAISYNGGSTYYADSVKGRFTISRDHAKTTVYLQMNSLKPEDTAVYSCAADIYVGRYGDMDFWGQGTQVTVSS | low polyreactivity |
| QVQLVESGGGLVQAGGSLRLSCAASGSTFGYYAMGWYRQAPGKERELVATINWSGGSTYYADSEKGRFTISRDNAKNTVYLQMISLKPEDTAVYYCAADPYLQYYWAYDYWGQGTQVTVSS | low polyreactivity |
| QVQLVESGGGLVQAGGSLRLSCAASASIFVNNAKGWYRQATGKERELVAAISSRSSRTIYADSVKGRFTISRDNAKKTVYLQMNSLKPEDTAVYYCAVKKRAPDGDYWGQGTQVTVSS | high polyreactivity |
| QVQLVESGGGLVQAGGSLRLSCAASGLTFTPNAMGWYRQAPGKEREFVAAITWRGGRTYYADSVKGRFTISRDNAKNTVYLQMNSLKPEDTAVYYCAADSFKGYDYWGQGTQVTVSS | high polyreactivity |

| Sequence | polyreactivity (PSR sort gate) |
| --- | --- |
| QVQLVESGGGLVQAGGSLRLSCAASGSIFRRYAMGWYRQAPGKEREFVAAITGSGGRTYYADSVKGRFTISRDNAKNTVYLQMNSLKPEDTAVYYCAARRRDRVTYYYWGQGTQVTVSS | high polyreactivity |
| HVQLEESGGGLDQAGGSLRLSCAASGITFVRNAMGWYRQAPGKERELVAVITSGGGTYYADSVKGRFTISRDNAKNTVYLQMNSLKPEDTAVYYWAGDIHVNGSGYWGKGTQVTVSS | low polyreactivity |
| QVQLVESGGGLVQAGGSLRLSCAASGRTFASYAMGWYRPAPGKEREFVAVISVNGGNTYYADSVKGRFTISRDNAKNTVYLQMNSLKPEDTAVYYCARFDGWYQGYYPLYEFDYWGQGTQVTVSS | high polyreactivity |
| QVQLVESGGGLVQAGGSLRLSCAASGRNFRKYAMGWYRQAPGKERELVAAITSSGGSTYYADSVKGRFTISRDNAKNTVYLQMNSLKPVDTAVYYCAAQKRGSPGYRRDYWGQGTQVTVSS | high polyreactivity |
| QVQLVESGGGLVQAGGSLRLSCAASGSTFRSYDMGWYRQAPGKERELVAASSSGGSTNYADSVKGRFTISRDNAKNTVYLQMNSLKPEDTAVYYCNAEYPYYWFKYDYWGQGTQVTVSS | low polyreactivity |
| QFHLVDSGGGLVQAGCSLRLSCAASGFTFNSYAMGWYRQAPGKERELVASITRGGGSTYYADSVKGRFTISRDNAKNTVYLKMNSLKPEDTAVYYCTARVRRRGGSFNYWGQGTQVIVSS | high polyreactivity |
| QVQLVESGGGLVQAGGSLRLSCAASGRTLELYVMGWYRQAPGKERELVAAIRWGTGSTYYADSVKGRFTISRDNAKNTVYLQMNSLKPEDTAVYYCAAVLRQYYRAYDYWGQGTQVTVSS | high polyreactivity |
| QVQLVESGGGLVQAGGSLRLSCAASGRTFGGYVMGWYRQAPGKESELVATITDSGGSTHYADSVKGRFTISRDNAKNTVYLQMNSLKPEDTAVYYCARRRSYRYPSEYNYWGQGTQVTVSS | high polyreactivity |
| QVQLVESGGGLVQAGGSLRLICAASGTFRINAMGWYRQAPGKEREFVATITSGGSTNYADSVKGRFTISRDNAKNTVYLQMNSLKPEDTAVYYCSRTRKIAGYYFWGQGTQVTVSS | high polyreactivity |
| QVQLLESAGGLVQAGGSLRLSCAASGFIYIPYAMGWYRQAPGKERELVAAISTRGGGTYYADSVKGRFTISRDNAKKPVYLQMNSVKPEDTAVYYCNKQAFYNGRVGYDYWGQGTQVTVSS | low polyreactivity |
| QVQLVESGGGLVQAGGCLRLSCAASGSIFDHYVMGWYREAPGKERELVAAISSGDRPNYADSVKGRFTISRDNAKNPVYLQMNSLKPEETAVYYCAAVVHVSPYSYDYWGQGTQVTVSA | low polyreactivity |
| QVQLVETGAGLVQAGGSLRLSSAASGRTLYPYAMGWSRQSPGNERELVAAISSRGGSTYYADSVKGRFTISRDIAKNTVYLQMNSLKPEDTAVYYCAKTYRKILSITGDVPWTDYYWGQGTQVTVSS | low polyreactivity |
| QVQLVESGGGLVQAGGSLRLSCAASGRIFYGYAMGWYRQAPGKERELVAAIDWSGGSTYADSVKGRFTISRDNAKNTVYLQMNSLKPEDTAVYYCATDWVTSQQPYYWIYEYWGQGTQVTVSS | low polyreactivity |
| QVQLVESGGGLVQAGGSLRLSCAASGRTFPYYAMGWYRQAPGKERELVAAISSSGGSTYYADSVKGRFTISRDNAKYTVYLQMNSLKPEDTAVYYCAAVYQFIKWGDRYEYWGQGTQVTVSS | high polyreactivity |
| QDQLVESGGGLVQAGGSLRLSCAASGSTFSIYAMGWYRQATGKERELVAAIPYSGGSTYYADSVKGRFTISRDNAKNTVYLQMNSLKPEDTAVYYCAAEVYDSRWWYSGATDDYWGQGTQVTVSS | high polyreactivity |
| QVQLVESGGGLVQAGGSLRLSCAASGNTFVKYVIGWYRQAPGKEREYVAAITVRGNTYYADSVKGRFTISRDNAKNTVYLQMNSLKPEDTAVYYCAARIYYLYKDRRLGYYWGQGTQVTVSS | high polyreactivity |
| QVQLVESGGGLVQAGGSLRLSCAASGRTFYYYVMGWYRQAPGKERELVAAITKSTGSTYYADSVKGRFTISRDNAKNTVYLQMNSLKPEDTAVYYCAAAYWITTPYDYWGQGTQVTVSS | low polyreactivity |
| QVQLVESGGGLVQAGGSLRLSCAASGSTFTPNAMGWYRQAPGKERELVAAINWSDSSTYYADSVKGRFTISRDNAKNTVYLQMNSLKPEDTAVYFCAAAAQYGQLQVPVYYWGQGTQVTVSS | low polyreactivity |
| QVQLVESGGGLVQAGGSLRLSCAASGIIFDGYAMGWYRQAPGKEREFVAAITSGGGSTSYADSVKGRFTISRDNAKNTVYLQMNSLKPEDTAVYYCAARSNRFYVRQRYAYWGQGTQLTVSS | high polyreactivity |
| QVHLVESGGGLVQAGGSLRLSCAASGRTFSRYAMGWYRQAPGKERELVATITRGGSTNYADSVKGRFTISRDNAKNTVYLQMNSLKPEDTAVYYCNAASFRYQGTLNHFYYWGQGTQVTVSS | low polyreactivity |
| QVQLVESGGGLVQAGGSLRLSCAASGLIFHRNAMGWYRQAPGTERELVAAITKTGGGTYYADSVKGRFTISRDNAKNTVYLQMNSLKPEDTAVYYCAADTQRTFYYWGQGTQVTVSS | low polyreactivity |
